Experimental data: patent publication US20240043505A1

Tests used:
Details in all cases: remark: other sources report otherwise
[1] = biological target: receptor-binding domain (RBD) of the SARS-CoV-2 spike (S) glycoprotein (SARS-CoV-2), P0DTC2
[2] = biological target: T1, SARS-CoV-2 spike receptor-binding domain (RBD) (SARS-CoV-2), P0DTC2; assay: indirect ELISA, RBD coated on plate, 4PL fit
[3] = biological target: T1, SARS-CoV-2 spike receptor-binding …; assay: SPR (Biacore 3000), RBD immobilised, Nb as analyte, 1:1 Langmuir fit

| Binder | Buried surface area [1] | ELISA affinity [2] | Kd [3] | koff [3] | kon [3] |
| --- | --- | --- | --- | --- | --- |
| Nb17 (VHH) VHH: HVQLVESGGGLVQAGGSLRLSCAASGSIFSSNAMSWYRQAPGKQRELVASITSGGNADYADSVKGRFTISRDKNTVYPEMSSLKPADTAVYYCHAVGQEASAYAPRAYWGQGTQVTVSS | 921 Å^2 | 0.45 nM | – | – | – |
| Nb21 (VHH) VHH: QVQLVESGGGLVQAGGSLRLSCAVSGLGAHRVGWFRRAPGKEREFVAAIGANGGNTNYLDSVKGRFTISRDNAKNTIYLQMNSLKPQDTAVYYCAARDIETAEYTYWGQGTQVTVSS | 850 Å^2 | 0.3 nM | < 1 pM | < 1e-06 s⁻¹ | 3.79e+06 M⁻¹ s⁻¹ |
